Data: US20030087316A1, “Diagnostic markers of liver dysfunction” (priority 2001, published 2003)
“Also recorded” adds a separate entry of the source. Blank lines part the entries; values can stand above or below the molecule they belong to.

Tests used:
[1] = test system: proteinase(s) in EDTA plasma from LTR (kallikrein-like peptidase); experiment: Peptidase activity in EDTA plasma from liver transplant recipients (LTR), chromogenic substrate, OD 405 nm; assay type: biochemical, human; conditions: for % Residual activity, LTR 1 / % Residual activity, LTR 2 / % Residual activity, LTR 3: substrate AGLTR-pNA; for Inhibition of the LTR plasma peptidase activity, in words: text on Tables 2 and 3, concentrations as there
Description: Blood samples were drawn into 5 ml EDTA tubes (Venoject; Terumo Corp., Elkton, Md.). The plasma was collected immediately by centrifugation at 2,000×g for 15 min at 4° C. The plasma samples were either processed immediately for analysis or stored at −70° C. Frozen samples were thawed at 4° C. prior to analysis.
(§1) The peptidase activity in plasma samples or of the purified enzymes were routinely determined at 37° C. in a 96-well plate. Each well contained 0.5 mM substrate in 100 μl of Tris-buffered saline (TBS)-EDTA buffer (50 mM Tris/150 mM NaCl/10 mM EDTA, pH 7.8) and the reaction was monitored using a microplate reader (Titertek Multiscan, Labsystems, Needham Heights, Mass.).
(§2) The enzymes C1s (100 nM), plasm in (100 nM), thrombin (100 nM), plasma kallikrein (20 nM), β-FXIIa (100 nM), trypsin (16 nM) or LTR EDTA plasma samples were incubated for 60 min at 4° C. with TBS-EDTA buffer containing either LBTI (1 mg/ml), SBTI (I mg/ml), aprotinin (0.075 mg/ml), benzamidine (50 mM), or Futhan (0.1 mg/ml), before mixing with the substrate. EDTA plasma samples from LTR were diluted 10 or 20-fold with TBS-EDTA. The chromogenic substrate AGLTR-pNA was used for all enzymes and LTR samples except C1s where the substrate S2288 was used. Based on the initial rate of increase in OD at 405 nm, the residual free enzyme level was calculated and expressed as a percentage of total activity without inhibitor added.
(§3) Ten-fold diluted normal EDTA plasma was added to each enzyme. The enzymes C1s (100 nM), plasmin (100 nM), thrombin (100 nM), plasma kallikrein (20 nM), β-FXIIa (100 nM), trypsin (16 nM) or LTR EDTA plasma samples were incubated for 60 min at 4° C. with TBS-EDTA buffer containing either C1INH (40 μg/ml), bdellin (50 μg/ml), hirudin (50 U/ml), PPACK 11(10 μM), or CTI (100 μg/ml), before adding the substrate. LTR samples were 10 or 20-fold diluted with TBS-EDTA. The chromogenic substrate AGLTR-pNA was used for all enzymes and LTP samples except C1s where the substrate S2288 was used. Based on the initial rate of increase in OD at 405 nm, the residual free enzyme was calculated and expressed as a percentage of total activity determined without inhibitor added.

[2] = molecular target: T1, C1s (Homo sapiens, UniProt P09871); experiment: Peptidase (amidolytic) activity of purified C1s, chromogenic substrate, 96-well plate, OD 405 nm; assay type: biochemical; conditions: for % Residual activity, C1s: substrate S2288; for Inhibition of C1s, in words: text on Tables 2 and 3, concentrations as there
T1 construct: purchased Advanced Research Technologies (San Diego, Calif.)
T1 sequence (P09871 438-688 limits assumed): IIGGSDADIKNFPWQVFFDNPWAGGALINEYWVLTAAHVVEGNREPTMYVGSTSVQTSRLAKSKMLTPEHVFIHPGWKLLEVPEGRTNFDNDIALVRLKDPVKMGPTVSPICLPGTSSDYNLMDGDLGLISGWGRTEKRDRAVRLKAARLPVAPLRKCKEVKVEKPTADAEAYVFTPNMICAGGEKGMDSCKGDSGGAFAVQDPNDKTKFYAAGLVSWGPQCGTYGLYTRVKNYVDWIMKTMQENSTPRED
T1 sequence (P09871 16-437 partner limits assumed): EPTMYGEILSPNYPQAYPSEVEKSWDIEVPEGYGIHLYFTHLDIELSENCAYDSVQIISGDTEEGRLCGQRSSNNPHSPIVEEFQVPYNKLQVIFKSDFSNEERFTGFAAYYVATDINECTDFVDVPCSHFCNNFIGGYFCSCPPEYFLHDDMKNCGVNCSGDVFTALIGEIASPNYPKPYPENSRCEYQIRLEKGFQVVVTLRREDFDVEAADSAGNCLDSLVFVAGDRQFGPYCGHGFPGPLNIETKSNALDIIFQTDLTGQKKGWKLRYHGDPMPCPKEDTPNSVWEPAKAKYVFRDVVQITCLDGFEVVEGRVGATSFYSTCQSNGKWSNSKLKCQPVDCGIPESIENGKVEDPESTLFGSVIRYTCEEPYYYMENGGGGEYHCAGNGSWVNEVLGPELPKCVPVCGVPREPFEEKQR
Description: as §1, §2, §3

[3] = molecular target: T2, plasma kallikrein (Homo sapiens, UniProt P03952); experiment: Peptidase (amidolytic) activity of purified plasma kallikrein, chromogenic substrate, OD 405 nm; assay type: biochemical; conditions: for % Residual activity, Plasma Kallikrein: substrate AGLTR-pNA; for Inhibition of purified plasma kallikrein activity, in words: text on Tables 2 and 3, concentrations as there
T2 construct: The light chain of kallikrein contains the enzymatic domain; purchased Calbiochem-Novabiochem Corp (La Jolla, Calif.)
T2 sequence (P03952 391-638 limits assumed): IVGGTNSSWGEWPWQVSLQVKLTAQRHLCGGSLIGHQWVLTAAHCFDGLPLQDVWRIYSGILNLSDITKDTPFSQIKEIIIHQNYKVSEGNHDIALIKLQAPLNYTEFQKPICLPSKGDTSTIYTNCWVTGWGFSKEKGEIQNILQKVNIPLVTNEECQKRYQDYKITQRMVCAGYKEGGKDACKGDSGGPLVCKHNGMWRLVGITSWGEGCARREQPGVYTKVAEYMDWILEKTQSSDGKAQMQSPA
T2 sequence (P03952 20-390 partner limits assumed): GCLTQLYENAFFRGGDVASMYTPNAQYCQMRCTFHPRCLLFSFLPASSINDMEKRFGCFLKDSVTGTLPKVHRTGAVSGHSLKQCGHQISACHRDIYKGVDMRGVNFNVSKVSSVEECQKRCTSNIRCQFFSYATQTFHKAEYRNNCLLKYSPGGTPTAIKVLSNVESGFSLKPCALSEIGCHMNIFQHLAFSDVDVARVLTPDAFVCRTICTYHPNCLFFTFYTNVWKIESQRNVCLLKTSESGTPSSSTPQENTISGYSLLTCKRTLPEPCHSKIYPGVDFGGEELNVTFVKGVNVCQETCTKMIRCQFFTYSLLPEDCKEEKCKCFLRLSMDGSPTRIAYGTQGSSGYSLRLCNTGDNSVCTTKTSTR
Description: as §1
(§4) […] EDTA plasma samples from LTR were diluted 10 or 20-fold with TBS-EDTA. The chromogenic substrate AGLTR-pNA was used for all enzymes and LTR samples except C1s where the substrate S2288 was used. Based on the initial rate of increase in OD at 405 nm, the residual free enzyme level was calculated and expressed as a percentage of total activity without inhibitor added.
(§5) Ten-fold diluted normal EDTA plasma was added to each enzyme. […] LTR samples were 10 or 20-fold diluted with TBS-EDTA. The chromogenic substrate AGLTR-pNA was used for all enzymes and LTP samples except C1s where the substrate S2288 was used. Based on the initial rate of increase in OD at 405 nm, the residual free enzyme was calculated and expressed as a percentage of total activity determined without inhibitor added.

[4] = molecular target: T3, plasmin (Homo sapiens, UniProt P00747); experiment: Peptidase (amidolytic) activity of purified plasmin, chromogenic substrate, OD 405 nm; assay type: biochemical; conditions: for % Residual activity, Plasmin: substrate AGLTR-pNA
T3 construct: purchased Calbiochem-Novabiochem Corp (La Jolla, Calif.)
T3 sequence (P00747 581-810 limits assumed, species assumed): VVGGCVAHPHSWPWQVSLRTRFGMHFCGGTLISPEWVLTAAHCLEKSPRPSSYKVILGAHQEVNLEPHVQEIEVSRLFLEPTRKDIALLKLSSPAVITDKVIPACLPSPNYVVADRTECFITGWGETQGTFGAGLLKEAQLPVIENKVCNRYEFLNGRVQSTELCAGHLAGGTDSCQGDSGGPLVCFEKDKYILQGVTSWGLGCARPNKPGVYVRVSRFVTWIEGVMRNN
T3 sequence (P00747 97-580 partner limits assumed, species assumed): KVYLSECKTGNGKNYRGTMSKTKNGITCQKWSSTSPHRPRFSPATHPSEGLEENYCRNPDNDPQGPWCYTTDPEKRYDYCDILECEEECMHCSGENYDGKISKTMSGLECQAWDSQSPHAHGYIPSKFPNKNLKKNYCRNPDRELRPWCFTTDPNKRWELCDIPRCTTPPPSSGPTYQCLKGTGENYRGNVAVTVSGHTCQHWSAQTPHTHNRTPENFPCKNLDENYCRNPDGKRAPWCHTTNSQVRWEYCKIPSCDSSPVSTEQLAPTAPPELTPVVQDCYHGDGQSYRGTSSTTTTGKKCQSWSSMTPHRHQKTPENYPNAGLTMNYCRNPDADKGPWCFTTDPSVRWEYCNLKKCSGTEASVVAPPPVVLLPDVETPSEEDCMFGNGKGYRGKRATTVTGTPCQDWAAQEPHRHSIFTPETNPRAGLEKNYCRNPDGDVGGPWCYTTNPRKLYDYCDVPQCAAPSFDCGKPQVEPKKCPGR
Description: as §1, §2, §3

[5] = molecular target: T4, thrombin (Homo sapiens, UniProt P00734); experiment: Peptidase (amidolytic) activity of purified thrombin, chromogenic substrate, OD 405 nm; assay type: biochemical; conditions: substrate AGLTR-pNA
T4 construct: purchased Calbiochem-Novabiochem Corp (La Jolla, Calif.)

[6] = molecular target: T5, β-Factor XIIa (β-FXIIa) (Homo sapiens, UniProt P00748); experiment: Peptidase (amidolytic) activity of purified β-FXIIa, chromogenic substrate, OD 405 nm; assay type: biochemical; conditions: substrate AGLTR-pNA
T5 construct: β-Factor XIIa (β-FXIIa) was kindly provided by Dr. Mary J. Heeb; gift of Dr. Mary J. Heeb, The Scripps Research Institute
T5 sequence (P00748 373-615 limits assumed, other chains not shown): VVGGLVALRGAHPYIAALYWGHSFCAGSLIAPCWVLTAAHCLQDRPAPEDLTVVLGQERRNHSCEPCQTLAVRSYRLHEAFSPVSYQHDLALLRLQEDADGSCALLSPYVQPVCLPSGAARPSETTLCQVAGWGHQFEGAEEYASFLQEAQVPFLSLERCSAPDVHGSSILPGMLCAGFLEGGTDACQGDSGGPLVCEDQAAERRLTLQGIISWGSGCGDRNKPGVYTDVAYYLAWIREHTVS
Description: as §1, §4, §5

[7] = test system: trypsin; experiment: Peptidase (amidolytic) activity of purified trypsin, chromogenic substrate, OD 405 nm; assay type: biochemical; conditions: Table 2
Description: as §1, §2

[8] = Table 3, LTR 1 EDTA plasma 10 or 20-fold diluted, 60 min at 4° C. with C1INH 40 μg/ml, bdellin 50 μg/ml, hirudin 50 U/ml, PPACK 11 10 μM or CTI 100 μg/ml
[9] = Table 3, LTR 2 EDTA plasma 10 or 20-fold diluted, 60 min at 4° C. with C1INH 40 μg/ml, bdellin 50 μg/ml, hirudin 50 U/ml, PPACK 11 10 μM or CTI 100 μg/ml
[10] = Table 3, LTR 3 EDTA plasma 10 or 20-fold diluted, 60 min at 4° C. with C1INH 40 μg/ml, bdellin 50 μg/ml, hirudin 50 U/ml, PPACK 11 10 μM or CTI 100 μg/ml
[11] = Table 3, C1s 100 nM with ten-fold diluted normal EDTA plasma added, 60 min at 4° C. with C1INH 40 μg/ml or PPACK 11 10 μM
[12] = Table 3, plasma kallikrein 20 nM with ten-fold diluted normal EDTA plasma added, 60 min at 4° C. with C1INH 40 μg/ml or PPACK 11 10 μM

Inhibition of the LTR plasma peptidase activity, in words [1]: caused only partial inhibition
Inhibition of the LTR plasma peptidase activity, in words ([1]; listed as CINH): inhibited partially
Inhibition of C1s, in words [2]: only partially inhibited C1s
% Residual activity, Plasma Kallikrein [3, 12]: 37.0%
Inhibition of purified plasma kallikrein activity, in words [3]: caused only partial inhibition
Molecule: C1INH: human C1 esterase inhibitor, purchased from Sigma Chemical
% Residual activity, LTR 1 [1, 8]: 81.4%
% Residual activity, LTR 2 [1, 9]: 84.0%
% Residual activity, LTR 3 [1, 10]: 41.0%
% Residual activity, C1s [2, 11]: 37.8%

Molecule: D-Phe-Phe-Arg-chloromethylketone [PPACK II]
% Residual activity, Plasmin ([4]; Table 3, plasmin 100 nM with ten-fold diluted normal EDTA plasma added, 60 min at 4° C. with bdellin 50 μg/ml or PPACK 11 10 μM): 9.2%
% Residual activity, Thrombin ([5]; Table 3, thrombin 100 nM with ten-fold diluted normal EDTA plasma added, 60 min at 4° C. with hirudin 50 U/ml or PPACK 11 10 μM): 0.7%
% Residual activity, LTR 1 [1, 8]: −0.2%
% Residual activity, LTR 2 [1, 9]: 0.6%
% Residual activity, LTR 3 [1, 10]: 2.7%
Inhibition of the LTR plasma peptidase activity, in words [1]: totally inhibited; also recorded: substantially inhibited
% Residual activity, β-FXIIa ([6]; Table 3, β-FXIIa 100 nM with ten-fold diluted normal EDTA plasma added, 60 min at 4° C. with PPACK 11 10 μM or CTI 100 μg/ml): 8.4%
% Residual activity, C1s [2, 11]: 82.2%
Inhibition of C1s, in words [2]: failed to inhibit C1s
% Residual activity, Plasma Kallikrein [3, 12]: 0.0%
Inhibition of purified plasma kallikrein activity, in words [3]: totally inhibited

Inhibition of plasmin amidolytic activity, in words ([4]; Table 2, concentrations as there): efficiently inhibited
Inhibition of trypsin amidolytic activity, in words ([7]; concentrations as there): efficiently inhibited
Inhibition of the LTR plasma peptidase activity, in words [1]: only partially effective
Inhibition of C1s, in words [2]: but not C1s
% Residual activity, Plasma Kallikrein ([3]; Table 2, plasma kallikrein 20 nM, 60 min at 4° C. with LBTI 1 mg/ml, SBTI I mg/ml, aprotinin 0.075 mg/ml, benzamidine 50 mM or Futhan 0.1 mg/ml): 2.2%
Inhibition of purified plasma kallikrein activity, in words [3]: efficiently inhibited
B1: SBTI: soybean trypsin inhibitor, purchased from Sigma Chemical (protein, UniProt P01070 25-205, looked up)
Trypsin inhibitor A: DFVLDNEGNPLENGGTYYILSDITAFGGIRAAPTGNERCPLTVVQSRNELDKGIGTIISSPYRIRFIAEGHPLSLKFDSFAVIMLCVGIPTEWSVVEDLPEGPAVKIGENKDAMDGWFRLERVSDDEFNNYKLVFCPQQAEDDKCGDIGISIDHDDGTRRLVVSKNKPLVVQFQKLDKESL
% Residual activity, Plasmin ([4]; Table 2, plasmin 100 nM, 60 min at 4° C. with LBTI 1 mg/ml, SBTI I mg/ml, aprotinin 0.075 mg/ml, benzamidine 50 mM or Futhan 0.1 mg/ml): 3.7%
% Residual activity, Thrombin ([5]; Table 2, thrombin 100 nM, 60 min at 4° C. with LBTI 1 mg/ml, SBTI I mg/ml, aprotinin 0.075 mg/ml, benzamidine 50 mM or Futhan 0.1 mg/ml): 46.7%
% Residual activity, Trypsin ([7]; trypsin 16 nM, substrate AGLTR-pNA, 60 min at 4° C. with LBTI 1 mg/ml, SBTI I mg/ml, aprotinin 0.075 mg/ml, benzamidine 50 mM or Futhan 0.1 mg/ml): 5.3%
% Residual activity, LTR 1 ([1]; Table 2, LTR 1 EDTA plasma diluted 10 or 20-fold, 60 min at 4° C. with LBTI 1 mg/ml, SBTI I mg/ml, aprotinin 0.075 mg/ml, benzamidine 50 mM or Futhan 0.1 mg/ml): 44.2%
% Residual activity, LTR 2 ([1]; Table 2, LTR 2 EDTA plasma diluted 10 or 20-fold, 60 min at 4° C. with LBTI 1 mg/ml, SBTI I mg/ml, aprotinin 0.075 mg/ml, benzamidine 50 mM or Futhan 0.1 mg/ml): 61.9%
% Residual activity, LTR 3 ([1]; Table 2, LTR 3 EDTA plasma diluted 10 or 20-fold, 60 min at 4° C. with LBTI 1 mg/ml, SBTI I mg/ml, aprotinin 0.075 mg/ml, benzamidine 50 mM or Futhan 0.1 mg/ml): 28.8%
% Residual activity, β-FXIIa ([6]; Table 2, β-FXIIa 100 nM, 60 min at 4° C. with LBTI 1 mg/ml, SBTI I mg/ml, aprotinin 0.075 mg/ml, benzamidine 50 mM or Futhan 0.1 mg/ml): 109.1%
% Residual activity, C1s ([2]; Table 2, C1s 100 nM, 60 min at 4° C. with LBTI 1 mg/ml, SBTI I mg/ml, aprotinin 0.075 mg/ml, benzamidine 50 mM or Futhan 0.1 mg/ml, % of total activity without inhibitor): 123.6%
